Measurements from patent US20230243070A1 (Molecular Partners, published 2023).

Legend:
[1] = biological target: T1, EBNApMHC (HLA-A*0201:EBNA-1), biotinylated recombinant complex (human; Epstein Barr virus); assay: ribosome display selection, crude extract HTRF
[2] = biological target: T2, NYESOpMHC (HLA-A*0201:NYESO1-9V), biotinylated recombinant complex (human); assay: SPR (ProteOn), biotinylated pMHC on NLC chip, PBS with Tween
T2 construct: also called NY-ESO-1 peptide-MHC complex

[3] = biological target: NYESOAApMHC (HLA-A*0201:NYESO1-9VAA), biotinylated recombinant complex (human); assay: SPR (ProteOn), biotinylated pMHC on NLC chip
[4] = biological target: T1, EBNApMHC (HLA-A*0201:EBNA-1), …; assay: SPR (ProteOn), biotinylated pMHC on NLC chip

| Binder | binding result [1] | Kd [2] [nM] | binding result [3] | binding result [4] |
| --- | --- | --- | --- | --- |
| SEQ ID NO 97 (designed binder) GSDLGKKLLQAARAGQLDEVRELLKADADVNAKDTWGYTPLHLAAFHGHLEIVEVLLKAGADVNAKDELGKTPLHLAAYVGPLEIVEVLLKAGADVNAKDQHGYTPLHIAAAYGHLEIVEVLLKAGADVNAQDKSGKTPADLAARAGHQDIAEVLQKAA | binds | – | – | – |
| SEQ ID NO 94 (designed binder) GSDLGQKLLEAARKGQDDEVRELLKAGADVNAKDKAGWTPLHLAAYFGHLEIVEVLLKAGADVNAKDVIGWTPLHLAAWQGHLEIVEVLLKAGADVNAQDLKGQTPADLAAQEGNEDIAEVLQKAA | binds | – | – | – |
| SEQ ID NO 95 (designed binder) GSDLGQKLLRAAQAGQDDEVRELLKAGADVNAKDEVGWTPLHLAAAWGHLEIVEVLLKAGADVNAKDHFGITPLHVAAELGHLEIVEVLLKAGADVNAQDLAGRAPADLAALEGHEDIAEVLQKAA | binds | – | – | – |
| SEQ ID NO 110 (designed binder) GSDLGKKLLQAARAGQLDEVRELLKAGADVNAKDAAGWTPLHLAAAEGHLEIVEVLLKAGADVNAKDVVGQTPLHVAAVIGHLEIVEVLLKAGADVNAKDSAGYTPLHLAAREGHLEIVEVLLKAGADVNAQDKSGKTPADLAARAGHQDIAEVLQKAA | binds | – | – | – |
| SEQ ID NO 93 (designed binder) GSDLGTKLLFAATLGQDDEVRILLAAGADVNAKDTIGRTPLHVAAHYGHLEIVEVLLKAGADVNAKDIYGFTPLHLAAYFGHLEIVEVLLKAGADVNAQDKTGKTPADLAAVIGHEDIAEVLQKAA | binds | – | – | – |
| SEQ ID NO 101 (designed binder) GSDLGEKLLAAALVGQDDEVRILLAVGADVNAKDVAGRTPLHRAALAGHLEIVEVLLKAGADVNAKDQSGFTPLHLAAVDGHLEIVEVLLKAGADVNAQDEIGATPADLAARIGHEDIAEVLQKAA | binds | – | – | – |
| SEQ ID NO 102 (designed binder) GSDLGHKLLIAAYLGQDDEVRILLAAGADVNAKDDFGITPLHVAAQVGHLEIVEVLLKAGADVNAKDKSGLTPLHLAAYYGHLEIVEDLLKAGADVNAQDYSGETPADLAASLGHEDIAEVLQKAA | binds | – | – | – |
| DARPin® protein #25 (designed binder) MRGSHHHHHHGSDLGNKLLSAAIRGQDDEVRILLAAGADVNAKDIHGHTPLHAAAQFGHLEIVEVLLKAGADVNAKDFYGLTPLHLAAIFGHLEIVEVLLKAGADVNAQDEEGKTPADLAAVIGHEDIAEVLQKAA | – | 0.172 | no binding | no binding (tested: 3.7 nM to 300 nM, or 250 nM single trace) |
| SEQ ID NO 104 (designed binder) GSDLGQKLLQAAQLGQDDEVRELLKAGADVNAKDTFGQTPLHPAAWSGHLEIVEVLLKAGADVNAKDKWGVTPLHLAAVSGHLEIVEVLLKAGADVNAQDLEGRTPADLAAKQGHEDIAEVLQKAA | binds | – | – | – |
| SEQ ID NO 98 (designed binder) GSDLGDKLLFAAELGQDDEVRILLAAGADVNAKDSFGQTPLHRVAANHGHLEIVEVLLKAGADVNAKDSSGHTPLHVAALTGHLEIVEVLLKAGADVNAQDESGFTPADLAADVGHEDIAEVLQKAA | binds | – | – | – |
| SEQ ID NO 103 (designed binder) GSDLGNKLLWAAYQGQDDEVRILLAAGADVNAKDYLGWTPLHIAATSGHLEIVEVLLKAGADVNAKDWYGYTPLHLAAEWGHLEIVEVLLKAGADVNAQDKSGKTPADLAADSGHEDIAEVLQKAA | binds | – | – | – |
| DARPin® protein #23 (designed binder) MRGSHHHHHHGSDLGIKLLYAANSGQDDEVRILLAAGADVNAKDEYGDTPLHKAAEYGHLEIVEVLLKAGADVNAKDVYGITPLHLAAIFGHLEIVEVLLKAGADVNAQDKKGHTPADLAAFVGHEDIAEVLQKAA | – | 0.0939 | no binding | no binding (tested: 3.7 nM to 300 nM, or 250 nM single trace) |
| SEQ ID NO 99 (designed binder) GSDLGAKLLFAAILGQDDEVRILLAAGADVNAKDETGHTPLHHAAHYGHLEIVEVLLKAGADVNAKDQYGFTPLHLAAYYGHLEIVEVLLKAGADVNAQDDDGITPADLAAAHGHEDIAEVLQKAA | binds | – | – | – |
| SEQ ID NO 105 (designed binder) GSDLGKKLLQAARAGQLDEVRELLKAGADVNAKDQEGRTPLHIAAAHGHLEIVEVLLKAGADVNAKDAYGYTPLHLAAFIGHLEIVEVLLKAGAEVNAKDKYGETPLHIAALTGHLEIVEVLLKAGADVNAQDKSGKTPADLAARAGHQDIAEVLQKAA | binds | – | – | – |
| DARPin® protein #24 (designed binder) MRGSHHHHHHGSDLGEKLLYAAFYGQDDEVRILLTAGADVNAKDKYGLTPLHRAATHGHLEIVEVLLKAGADVNAKDEWGTTPLHIAAIFGHLEIVEVLLKAGADVNAQDEQGNTPADLAAVIGHEDIAEVLQKAA | – | 0.939 | no binding | no binding (tested: 3.7 nM to 300 nM, or 250 nM single trace) |
| DARPin® protein #30 (designed binder) MRGSHHHHHHGSDLGKKLLQAARAGQLDEVRELLKAGADVNAKDRFGIPLHIAASQGHLEIVEVLLKAGADVNAKDHWGETPLHLAAVFGHLEIVEVLLKAGADVNAKDHTGQTPLHLAAYLGHLEIVEVLLKAGADVNAQDKSGKTPADLAARAGHQDIAEVLQKAA | – | 2.33 | no binding | no binding (tested: 3.7 nM to 300 nM, or 250 nM single trace) |
| SEQ ID NO 96 (designed binder) GSDLGKKLLQAARAGQLDEVRELLKAGADVNAKDLTGITPLHIAAREGHLEIVEVLLKAGADVNAKDAWGFTPLHVAAWTGHLEIVEVLLKAGADVNAKDLLGETPLHLAAEAGHLEIVEVLLKAGADVNAQDKSGKTPADLAARAGHQDIAEVLQKAA | binds | – | – | – |
| SEQ ID NO 107 (designed binder) GSDLGKKLLQAARAGQLDEVRELLKAGADVNAKDLTGITPLHVAARSGHPEIVEVLLKAGADVNAKDAWGFTPLHVAAYKGHLEIVEVLLKAGADVNAKDQLGETPLHLAAAEGHLEIVEVLLKAGADVNAQDKSGKTPADLAARAGHQDIAEVLQKAA | binds | – | – | – |
| SEQ ID NO 109 (designed binder) GSDLGKKLLQAARAGQLDEVRELLKAGADVNAKDLSGVTPLHIAARSGHLEIVEVLLKAGADVNAKDAWGYTPLHVAAEHGHLEIVEVLLKAGADVNAKDHLGSTPLHIAASHGHLEIVEVLLKAGADVNAQDKSGKTPADLAARAGHQDIAEVLQKAA | binds | – | – | – |
| SEQ ID NO 106 (designed binder) GSDLGKKLLQAARAGQLDEVRELLKAGADVNAKDLAGVTPLHVAARAGHLEIVEVLLKAGADVNAKDAWGFTPLHIAAYQGHLEIVEVLLKAGADVNAKDLLGSTPLHVAAETGHLEIVEVLLKAGADVNAQDKSGKTPADLAARAGHLDIAEVLQKAA | binds | – | – | – |
| SEQ ID NO 108 (designed binder) GSDLGKKLLQAARAGQLDEVRELLKAGADVNAKDQTGWTPLHIAAHTGHLEIVEVLLKAGADVNAKDAVGFTPLHVAAWSGHLEIVEVLLKDGADVNAKDTSGATPLHLAAEWGHLEIVEVLLKAGADVNAQDKSGKTPADLAARAGHQDIAEVLQKAA | binds | – | – | – |
| SEQ ID NO 100 (designed binder) GSDLGSKLLQAAAVGQDDEVRILLAAGADVNAKDDFGETPLHLAAWHGHLEIVEVLLKAGADVNAKDEQGFTPLHWAALTGHLEIVEVLLKAGADVNAQDKQGITPADLAANAGHEDIAEVLQKAA | binds | – | – | – |
| DARPin® protein #32 (designed binder) MRGSHHHHHHGSDLGKKLLQAARAGQLDEVRELLKAGADVNAKDYFGSTPLHLAQLGHLEIVEVLLKAGADVNAKDYQGHTPLHVDAFHGHLEIVEVLLKAGADVNAKDQWGVTPLHLAAEWGHLEIVEVLLKAGADVNAQDKSGKTPADLAARAGHQDIAEVLQKAA | – | 1.63 | no binding | no binding (tested: 3.7 nM to 300 nM, or 250 nM single trace) |
| DARPin® protein #29 (designed binder) MRGSHHHHHHGSDLGKKLLQAARAGQLDEVRELLKAGADVNAKDRAGSTPLHLAAFRGHLEIVEVLLKAGADVNAKDAAGYTPLHLAALYGHLEIVEVLLKAGADVNAKDHAGSTPLHLAALAGHLEIVEVLLKAGADVNAQDKSGKTPADLAARAGHQDIAEVLQKAA | – | 0.635 | no binding | no binding (tested: 3.7 nM to 300 nM, or 250 nM single trace) |
| DARPin® protein #33 (designed binder) MRGSHHHHHHGSDLGKKLLQAARAGQLDEVRELLKAGADVNAKDAIGQTPLHLAAFRGHLEIVEVLLKAGADVNAKDVAGWTPLHIAAAYGHLEIVEVLLKAGADVNAKDAYGQTPLHLAAFQGHLEIVEVLLKAGADVNAQDKSGKTPADLAARAGHQDIAEVLQKAA | – | 0.108 | no binding | no binding (tested: 3.7 nM to 300 nM, or 250 nM single trace) |
| DARPin® protein #31 (designed binder) MRGSHHHHHHGSDLGKKLLQAARAGQLDEVRELLKAGADVNAKDATGQTPLHVAAFRGHLEIVEVLLKAGADVNAKDKAGYTPLHIAAYAGHLEIVEVLLKAGADVNAKDHAGWTPLHLAAILGHLEIVEVLLKAGADVNAQDKSGKTPADLAARAGHQDIAEVLQKAA | – | 1.32 | no binding | no binding (tested: 3.7 nM to 300 nM, or 250 nM single trace) |
